Laboratory results from publication PMC2774623 (Biochemistry, 2008).
Read-outs that look alike come from different tables or passages of the source.

B1: wild-type recombinant murine NBD1 (nucleotide binding domain 1 of CFTR, spanning sequence 389−673) (domain or fragment, mouse, UniProt P26361 389-673, looked up)
chain: TTGIIMENVTAFWEEGFGELLEKVQQSNGDRKHSSDENNVSFSHLCLVGNPVLKNINLNIEKGEMLAITGSTGSGKTSLLMLILGELEASEGIIKHSGRVSFCSQFSWIMPGTIKENIIFGVSYDEYRYKSVVKACQLQQDITKFAEQDNTVLGEGGVTLSGGQRARISLARAVYKDADLYLLDSPFGYLDVFTEEQVFESCVCKLMANKTRILVTSKMEHLRKADKILILHQGSSYFYGTFSELQSLRPDFSSKLMGYDTFDQFTEERRSSILTETLRRFSVDD
B2: ΔF508 mutated recombinant murine NBD1 (spanning sequence 389−673) (domain or fragment, mouse, UniProt P26361 389-673, looked up)
chain: TTGIIMENVTAFWEEGFGELLEKVQQSNGDRKHSSDENNVSFSHLCLVGNPVLKNINLNIEKGEMLAITGSTGSGKTSLLMLILGELEASEGIIKHSGRVSFCSQFSWIMPGTIKENIIGVSYDEYRYKSVVKACQLQQDITKFAEQDNTVLGEGGVTLSGGQRARISLARAVYKDADLYLLDSPFGYLDVFTEEQVFESCVCKLMANKTRILVTSKMEHLRKADKILILHQGSSYFYGTFSELQSLRPDFSSKLMGYDTFDQFTEERRSSILTETLRRFSVDD
B3: wild-type human NBD1 (spanning sequence 389−673) (domain or fragment, UniProt P13569 389-673, looked up)
chain: TTEVVMENVTAFWEEGFGELFEKAKQNNNNRKTSNGDDSLFFSNFSLLGTPVLKDINFKIERGQLLAVAGSTGAGKTSLLMVIMGELEPSEGKIKHSGRISFCSQFSWIMPGTIKENIIFGVSYDEYRYRSVIKACQLEEDISKFAEKDNIVLGEGGITLSGGQRARISLARAVYKDADLYLLDSPFGYLDVLTEKEIFESCVCKLMANKTRILVTSKMEHLKKADKILILHEGSSYFYGTFSELQNLQPDFSSKLMGCDSFDQFSAERRNSILTETLHRFSLEG

Legend:
Test in all cases: SPR
[1] = target: T1, recombinant α-subunit of human protein kinase CK2 (human, UniProt P68400 1-391)
T1 sequence (P68400 whole entry): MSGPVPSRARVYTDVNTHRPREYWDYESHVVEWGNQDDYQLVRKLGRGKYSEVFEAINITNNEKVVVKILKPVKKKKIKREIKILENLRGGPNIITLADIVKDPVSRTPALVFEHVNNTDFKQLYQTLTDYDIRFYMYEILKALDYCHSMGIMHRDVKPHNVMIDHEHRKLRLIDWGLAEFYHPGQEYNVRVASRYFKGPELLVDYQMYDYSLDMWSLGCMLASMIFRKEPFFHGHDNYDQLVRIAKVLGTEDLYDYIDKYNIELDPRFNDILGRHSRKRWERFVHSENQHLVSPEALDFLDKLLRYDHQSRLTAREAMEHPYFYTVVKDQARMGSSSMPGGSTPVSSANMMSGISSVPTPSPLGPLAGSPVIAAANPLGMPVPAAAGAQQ

[2] = target: T1, recombinant α-subunit of human protein …; remark: listed apart in the source
[3] = target: B3
[4] = target: B1
[5] = target: B2
[6] = target: T1, recombinant α-subunit of human protein …; remark: listed apart in the source

| Binder | binding result [1] | Kd [2] [nM] | koff [2] [s⁻¹] | kon [2] [M⁻¹ s⁻¹] | further results |
| --- | --- | --- | --- | --- | --- |
| IIGVSYDEYRYR (peptide, UniProt P13569 506-518, looked up) [CFTR peptide 506−518 ΔF] | binds | – | – | – | – |
| B1 | – | 2470 | 0.000335 | 135 | – |
| B2 | – | 91.2 | 8.77e-05 | 961 | – |
| recombinant β-subunit of human protein kinase CK2 (natural protein) not shown | binds | – | – | – | binding result [3]: binds; binding result [4]: binds; binding result [5]: binds |
| B3 | – | – | – | – | binding result [6]: binds |
